Target: recombinant SSA (streptococcal superantigen SSA of S. pyogenes HKU16, without the predicted signal peptide) (S. pyogenes HKU16)

Question: For “recombinant SSA (streptococcal superantigen SSA of S. pyogenes HKU16, without the predicted signal peptide) (natural protein)”, which stoichiometry N is on record?
Answer: Its stoichiometry N is 2.

From article PMC7538557
